In publication PMC6422423, “Constitutively active BRS3 is a genuinely orphan GPCR in placental mammals” (PLoS Biology, 2019):

Columns and labels:
[1] = target: chicken bombesin receptor subtype-3 (chicken (Gallus gallus)); assay: radioligand binding; displacement of 50 pM [125I]-Tyr42-GRP by unlabeled peptide on disaggregated transfected HEK293 cells; 1 h at 21°C; 24.5 mM HEPES pH 7.4, 98 mM NaCl; bound tracer separated by centrifugation
[2] = target: spotted gar bombesin receptor subtype-3 (spotted gar (Lepisosteus oculatus)); assay: as above
Chain of spotted gar bombesin receptor subtype-3 (spotted gar (Lepisosteus oculatus)) (main, as listed by the source): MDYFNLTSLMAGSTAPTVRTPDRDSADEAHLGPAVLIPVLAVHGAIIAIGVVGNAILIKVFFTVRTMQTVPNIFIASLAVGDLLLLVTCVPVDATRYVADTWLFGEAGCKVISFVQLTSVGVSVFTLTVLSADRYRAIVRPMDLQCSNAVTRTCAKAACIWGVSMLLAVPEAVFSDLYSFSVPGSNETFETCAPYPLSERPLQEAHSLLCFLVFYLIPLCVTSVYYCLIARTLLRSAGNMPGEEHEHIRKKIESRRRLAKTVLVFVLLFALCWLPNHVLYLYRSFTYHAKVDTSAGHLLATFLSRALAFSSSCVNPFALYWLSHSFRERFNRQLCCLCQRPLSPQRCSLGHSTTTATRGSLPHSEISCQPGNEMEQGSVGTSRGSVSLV

[3] = target: turtle bombesin receptor subtype-3 (turtle (Chrysemys picta)); assay: as above
Chain of turtle bombesin receptor subtype-3 (turtle (Chrysemys picta)) (main, as listed by the source): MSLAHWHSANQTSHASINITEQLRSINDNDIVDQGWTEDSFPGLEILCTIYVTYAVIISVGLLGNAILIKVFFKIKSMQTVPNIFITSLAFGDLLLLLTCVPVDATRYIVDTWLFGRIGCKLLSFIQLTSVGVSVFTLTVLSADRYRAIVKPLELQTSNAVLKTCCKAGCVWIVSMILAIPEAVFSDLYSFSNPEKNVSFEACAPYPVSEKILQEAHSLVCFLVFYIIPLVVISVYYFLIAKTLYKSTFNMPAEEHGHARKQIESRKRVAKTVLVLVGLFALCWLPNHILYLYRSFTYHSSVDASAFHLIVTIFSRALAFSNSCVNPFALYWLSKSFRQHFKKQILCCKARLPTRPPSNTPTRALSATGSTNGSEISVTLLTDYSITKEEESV

[4] = target: aardvark bombesin receptor subtype-3 (aardvark (Orycteropus afer)); assay: radioligand binding; displacement of 50 pM [125I]-Tyr-NMB by unlabeled peptide on disaggregated transfected HEK293 cells; 1 h at 21°C; 24.5 mM HEPES pH 7.4, 98 mM NaCl; bound tracer separated by centrifugation
Chain of aardvark bombesin receptor subtype-3 (aardvark (Orycteropus afer)) (P32247 other isoform, or with tags, fused parts or gaps): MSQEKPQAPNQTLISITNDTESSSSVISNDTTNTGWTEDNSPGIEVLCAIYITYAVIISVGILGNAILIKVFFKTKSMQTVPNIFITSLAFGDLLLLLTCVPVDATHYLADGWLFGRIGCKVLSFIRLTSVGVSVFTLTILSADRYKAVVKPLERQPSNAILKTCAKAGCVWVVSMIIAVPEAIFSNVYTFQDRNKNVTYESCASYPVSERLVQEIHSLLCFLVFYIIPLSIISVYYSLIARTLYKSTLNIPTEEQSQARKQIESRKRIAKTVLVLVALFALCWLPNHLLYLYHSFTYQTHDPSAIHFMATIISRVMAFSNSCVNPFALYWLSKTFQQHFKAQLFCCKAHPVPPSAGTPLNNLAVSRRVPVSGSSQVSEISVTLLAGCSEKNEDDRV

[5] = target: chicken bombesin receptor subtype-3 (chicken (Gallus gallus)); assay: as above
[6] = target: spotted gar bombesin receptor subtype-3 (spotted gar (Lepisosteus oculatus)); assay: as above
[7] = target: turtle bombesin receptor subtype-3 (turtle (Chrysemys picta)); assay: as above

- IC50 [1]: 1.35 nM
- IC50 [2]: 1.74 nM
- IC50 [3]: 1.14 nM
- Ki [4]: > 1000 nM
- IC50 [5]: 2.26 nM
- IC50 [6]: 2.65 nM
- IC50 [7]: 2.82 nM
Substance: neuromedin B, unlabeled ligand peptide of the radioligand binding assays
